According to paper PMC8938434, “Atomic resolution dynamics of cohesive interactions in phase-separated Nup98 FG domains” (Nature Communications, 2022):

Columns and labels:
[1] = molecular target: the molecule itself; assay: co-sedimentation; centrifugation assay of phase separation of GLFG_(52 × 12) variants at 25 °C, [FG domain] = 10 μM, [NaCl] = 150 mM, 20 mM NaPi pH 6.8, 5 mM DTT; repeated at 100 μM for GAFG, GLLG and GLAG; critical concentration = concentration of the supernatant
prf.GLFG_(52 × 12) = molecular target: T1, prf.GLFG_(52 × 12); assay: partition of Atto488-coupled FG domains into FG particles (confocal laser scanning microscopy); 20 μM unlabelled prf.GLFG_(52 × 12) premixed with 0.5 μM Atto488-labelled species (GAFG: 3 μM); 20 mM NaPi pH 6.8, 150 mM NaCl, 5 mM DTT; 21 °C; apparent partition coefficient = Atto488 signal IN: OUT of the FG particles; settings: both partners purified
T1 construct: engineered from the Tetrahymena thermophila MacNup98A FG domain; plasmid pSNG064; Isotope-labelled (15N, 13C) for NMR; also called perfect repeat; source: E. coli, inclusion bodies, Ni(II) chelate column, tag cut off with bdSENP1 protease, lyophilized; not shown: His14-ZZ-scSUMO, N-terminal, cleaved
T1 chain: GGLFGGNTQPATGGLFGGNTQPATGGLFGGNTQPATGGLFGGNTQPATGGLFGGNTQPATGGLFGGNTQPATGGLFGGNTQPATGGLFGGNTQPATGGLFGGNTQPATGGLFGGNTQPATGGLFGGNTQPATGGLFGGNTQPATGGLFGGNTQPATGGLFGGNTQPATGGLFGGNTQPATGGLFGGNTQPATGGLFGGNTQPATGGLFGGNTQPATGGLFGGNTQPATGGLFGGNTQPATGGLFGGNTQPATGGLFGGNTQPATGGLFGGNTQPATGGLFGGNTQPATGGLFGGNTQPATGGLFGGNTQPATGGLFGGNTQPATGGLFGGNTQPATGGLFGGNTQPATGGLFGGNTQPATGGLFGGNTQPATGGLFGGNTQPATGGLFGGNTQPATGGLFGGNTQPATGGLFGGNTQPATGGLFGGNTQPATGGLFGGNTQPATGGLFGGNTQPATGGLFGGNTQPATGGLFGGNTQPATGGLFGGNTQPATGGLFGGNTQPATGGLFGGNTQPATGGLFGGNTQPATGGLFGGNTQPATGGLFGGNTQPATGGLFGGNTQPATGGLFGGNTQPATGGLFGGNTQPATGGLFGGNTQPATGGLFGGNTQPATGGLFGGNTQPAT

B1: GLLG_(52 × 12) (other)
chain: GSGLLGNTGGAPAGGLLGNTQTQQGGGLLGQPQQTQGGGLLGQTGATTGGGLLGGATNTAPGGLLGGGGGNPTGGLLGGNNNQQTGGLLGQGTTQTGGGLLGAPQNNQGGGLLGGGTTTTGGGLLGANTQTGGGGLLGGPSQPTTAGLLGSNNPTTGGGLLGQPANTNNGGLLGGQTNNQASGLLGANNQPPTNGLLGNNNKPQTAGLLGGATTTGNTGLLGGANNTGGGGLLGNNTNNPTGGLLGATNPAGGGGLLGGGATTGGGGLLGGGNTQTGGGLLGTANTTTAGGLLGGGNTQPQNGLLGNNNTPATGGLLGQTNNAAPQGLLGGTNNNAASGLLGQKPASANGVLTKPNEKNLCYAISNGTDFCIFELALTQRKLVKAGQLKPGAQAGGLLGQPAQNTQGGLLGGGGAATTPGLLGGAQNNTTGGLLGGQNTQAGGGLLGAPNNAAATGLLGAGNANTQGGLLGAKPAATGGGLLGQPAQTQAGGLLGNTAQPAGGGLLGGATTTPGGGLLGGNTAATGGGLLGGNTQGATGGLLGGQQPNNQGGLLGNTNANTGGGLLGGATTTTGGGLLGGSTGATGGGLLGGASQPAAGGLLGGAAPQQNSGLLGGATAGQTGGLLGGATQQQGGGLLGQTASNPGGGLLGAANATTQPGLLGGNNQAATSC
For B1, the “critical concentration for phase separation” value (from here on “critical concentration”) [1] was over 100 µM.

B2: GXFG//V_(52 × 12) (other)
chain: GGFGNTGVAPAGGTFGNTQVQQGGGQFGQPQVTQGGGAFGQTGVTTGGGNFGGATVTAPGGGFGGGGVNPTGGNFGGNNVQQTGGTFGQGTVQTGGGNFGAPQVNQGGGTFGGGTVTTGGGQFGANTVTGGGGQFGGPSVPTTAGPFGSNNVTTGGGNFGQPAVTNNGGNFGGQTVNQASGQFGANNVPPTNGKFGNNNVPQTAGTFGGATVTGNTGNFGGANVTGGGGNFGNNTVNPTGGPFGATNVAGGGGTFGGGAVTGGGGTFGGGNVQTGGGTFGTANVTTAGGTFGGGNVQPQNGTFGNNNVPATGGNFGQTNVAAPQGNFGGTNVNAASGAFGQKPVSANGVLTKPNEKNLCYAISNGTDFCIFELALTQRKLVKAGQLKPGAQAGGQFGQPAVNTQGGAFGGGGVATTPGNFGGAQVNTTGGTFGGQNVQAGGGNFGAPNVAAATGAFGAGNVNTQGGAFGAKPVATGGGQFGQPAVTQAGGQFGNTAVPAGGGTFGGATVTPGGGAFGGNTVATGGGQFGGNTVGATGGPFGGQQVNNQGGAFGNTNVNTGGGTFGGATVTTGGGGFGGSTVATGGGQFGGASVPAAGGPFGGAAVQQNSGAFGGATVGQTGGQFGGATVQQGGGSFGQTAVNPGGGAFGAANVTTQPGQFGGNNVAATSC
With B2 the “critical concentration” value [1] was 8 µM.

B3: Atto488-coupled GLFG_(52 × 12) (other)
chain: GSGLFGNTGGAPAGGLFGNTQTQQGGGLFGQPQQTQGGGLFGQTGATTGGGLFGGATNTAPGGLFGGGGGNPTGGLFGGNNNQQTGGLFGQGTTQTGGGLFGAPQNNQGGGLFGGGTTTTGGGLFGANTQTGGGGLFGGPSQPTTAGLFGSNNPTTGGGLFGQPANTNNGGLFGGQTNNQASGLFGANNQPPTNGLFGNNNKPQTAGLFGGATTTGNTGLFGGANNTGGGGLFGNNTNNPTGGLFGATNPAGGGGLFGGGATTGGGGLFGGGNTQTGGGLFGTANTTTAGGLFGGGNTQPQNGLFGNNNTPATGGLFGQTNNAAPQGLFGGTNNNAASGLFGQKPASANGVLTKPNEKNLCYAISNGTDFCIFELALTQRKLVKAGQLKPGAQAGGLFGQPAQNTQGGLFGGGGAATTPGLFGGAQNNTTGGLFGGQNTQAGGGLFGAPNNAAATGLFGAGNANTQGGLFGAKPAATGGGLFGQPAQTQAGGLFGNTAQPAGGGLFGGATTTPGGGLFGGNTAATGGGLFGGNTQGATGGLFGGQQPNNQGGLFGNTNANTGGGLFGGATTTTGGGLFGGSTGATGGGLFGGASQPAAGGLFGGAAPQQNSGLFGGATAGQTGGLFGGATQQQGGGLFGQTASNPGGGLFGAANATTQPGLFGGNNQAATSC
modifications: Atto488 (coupled)
In the case of B3, the partition coefficient (prf.GLFG_(52 × 12)) is reported as over 1000.

B4: Atto488-coupled GAFG_(52 × 12) (other)
chain: GSGAFGNTGGAPAGGAFGNTQTQQGGGAFGQPQQTQGGGAFGQTGATTGGGAFGGATNTAPGGAFGGGGGNPTGGAFGGNNNQQTGGAFGQGTTQTGGGAFGAPQNNQGGGAFGGGTTTTGGGAFGANTQTGGGGAFGGPSQPTTAGAFGSNNPTTGGGAFGQPANTNNGGAFGGQTNNQASGAFGANNQPPTNGAFGNNNKPQTAGAFGGATTTGNTGAFGGANNTGGGGAFGNNTNNPTGGAFGATNPAGGGGAFGGGATTGGGGAFGGGNTQTGGGAFGTANTTTAGGAFGGGNTQPQNGAFGNNNTPATGGAFGQTNNAAPQGAFGGTNNNAASGAFGQKPASANGVLTKPNEKNLCYAISNGTDFCIFELALTQRKLVKAGQLKPGAQAGGAFGQPAQNTQGGAFGGGGAATTPGAFGGAQNNTTGGAFGGQNTQAGGGAFGAPNNAAATGAFGAGNANTQGGAFGAKPAATGGGAFGQPAQTQAGGAFGNTAQPAGGGAFGGATTTPGGGAFGGNTAATGGGAFGGNTQGATGGAFGGQQPNNQGGAFGNTNANTGGGAFGGATTTTGGGAFGGSTGATGGGAFGGASQPAAGGAFGGAAPQQNSGAFGGATAGQTGGAFGGATQQQGGGAFGQTASNPGGGAFGAANATTQPGAFGGNNQAATTSC
modifications: Atto488 (coupled)
Binder B4 has a partition coefficient (prf.GLFG_(52 × 12)) of 4.

B5: GXFG//L_(52 × 12) (other)
chain: GGFGNTGLAPAGGTFGNTQLQQGGGQFGQPQLTQGGGAFGQTGLTTGGGNFGGATLTAPGGGFGGGGLNPTGGNFGGNNLQQTGGTFGQGTLQTGGGNFGAPQLNQGGGTFGGGTLTTGGGQFGANTLTGGGGQFGGPSLPTTAGPFGSNNLTTGGGNFGQPALTNNGGNFGGQTLNQASGQFGANNLPPTNGKFGNNNLPQTAGTFGGATLTGNTGNFGGANLTGGGGNFGNNTLNPTGGPFGATNLAGGGGTFGGGALTGGGGTFGGGNLQTGGGTFGTANLTTAGGTFGGGNLQPQNGTFGNNNLPATGGNFGQTNLAAPQGNFGGTNLNAASGAFGQKPLSANGVLTKPNEKNLCYAISNGTDFCIFELALTQRKLVKAGQLKPGAQAGGQFGQPALNTQGGAFGGGGLATTPGNFGGAQLNTTGGTFGGQNLQAGGGNFGAPNLAAATGAFGAGNLNTQGGAFGAKPLATGGGQFGQPALTQAGGQFGNTALPAGGGTFGGATLTPGGGAFGGNTLATGGGQFGGNTLGATGGPFGGQQLNNQGGAFGNTNLNTGGGTFGGATLTTGGGGFGGSTLATGGGQFGGASLPAAGGPFGGAALQQNSGAFGGATLGQTGGQFGGATLQQGGGSFGQTALNPGGGAFGAANLTTQPGQFGGNNLAATTS
In the case of B5, the “critical concentration” value [1] is reported as 0.8 µM.

B6: GLFG_(52 × 12) (other)
chain: GLFGNTGGAPAGGLFGNTQTQQGGGLFGQPQQTQGGGLFGQTGATTGGGLFGGATNTAPGGLFGGGGGNPTGGLFGGNNNQQTGGLFGQGTTQTGGGLFGAPQNNQGGGLFGGGTTTTGGGLFGANTQTGGGGLFGGPSQPTTAGLFGSNNPTTGGGLFGQPANTNNGGLFGGQTNNQASGLFGANNQPPTNGLFGNNNKPQTAGLFGGATTTGNTGLFGGANNTGGGGLFGNNTNNPTGGLFGATNPAGGGGLFGGGATTGGGGLFGGGNTQTGGGLFGTANTTTAGGLFGGGNTQPQNGLFGNNNTPATGGLFGQTNNAAPQGLFGGTNNNAASGLFGQKPASANGVLTKPNEKNLCYAISNGTDFCIFELALTQRKLVKAGQLKPGAQAGGLFGQPAQNTQGGLFGGGGAATTPGLFGGAQNNTTGGLFGGQNTQAGGGLFGAPNNAAATGLFGAGNANTQGGLFGAKPAATGGGLFGQPAQTQAGGLFGNTAQPAGGGLFGGATTTPGGGLFGGNTAATGGGLFGGNTQGATGGLFGGQQPNNQGGLFGNTNANTGGGLFGGATTTTGGGLFGGSTGATGGGLFGGASQPAAGGLFGGAAPQQNSGLFGGATAGQTGGLFGGATQQQGGGLFGQTASNPGGGLFGAANATTQPGLFGGNNQAATSC
In the case of B6, the “critical concentration” value [1] is reported as 0.1 µM.

B7: Atto488-coupled GXFG//L_(52 × 12) (other)
chain: GSGGFGNTGLAPAGGTFGNTQLQQGGGQFGQPQLTQGGGAFGQTGLTTGGGNFGGATLTAPGGGFGGGGLNPTGGNFGGNNLQQTGGTFGQGTLQTGGGNFGAPQLNQGGGTFGGGTLTTGGGQFGANTLTGGGGQFGGPSLPTTAGPFGSNNLTTGGGNFGQPALTNNGGNFGGQTLNQASGQFGANNLPPTNGKFGNNNLPQTAGTFGGATLTGNTGNFGGANLTGGGGNFGNNTLNPTGGPFGATNLAGGGGTFGGGALTGGGGTFGGGNLQTGGGTFGTANLTTAGGTFGGGNLQPQNGTFGNNNLPATGGNFGQTNLAAPQGNFGGTNLNAASGAFGQKPLSANGVLTKPNEKNLCYAISNGTDFCIFELALTQRKLVKAGQLKPGAQAGGQFGQPALNTQGGAFGGGGLATTPGNFGGAQLNTTGGTFGGQNLQAGGGNFGAPNLAAATGAFGAGNLNTQGGAFGAKPLATGGGQFGQPALTQAGGQFGNTALPAGGGTFGGATLTPGGGAFGGNTLATGGGQFGGNTLGATGGPFGGQQLNNQGGAFGNTNLNTGGGTFGGATLTTGGGGFGGSTLATGGGQFGGASLPAAGGPFGGAALQQNSGAFGGATLGQTGGQFGGATLQQGGGSFGQTALNPGGGAFGAANLTTQPGQFGGNNLAATTSC
modifications: Atto488 (coupled)
B7 was tested, and the partition coefficient (prf.GLFG_(52 × 12)) was over 1000.
